Tests used:
[1] = format: physicochemical
From the text: GDP-L-Galactose (˜50% pure, contaminated with the breakdown products GDP and L-Galactose-1-Phosphate as shown by HPLC and LCMS) and L-Galactose-1-Phosphate were purchased from Glycoteam, Hamburg, Germany. […] Other biochemicals were purchased from Sigma.

[2] = molecular target: T1, kiwifruit GDP-L-Galactose Guanyltransferase EST 319998 (Actinidia chinensis, UniProt A0A2R6QD99); assay: Fixed time transferase assay, aliquots measured by LCMS; format: biochemical; details: acceptor Mannose-1-P; 0.057 ug protein
Method: (§1) The assay for GDP-L-Galactose-1-Phosphate Guanyltransferase was run in 20 mM TrisCl, pH 8.0, GDP-L-Galactose, with 1 mM D-Mannose-1-Phosphate. GDP-L-Galactose was either used directly from the Glycoteam product (in which case high backgrounds were observed due to contaminating L-Galactose-1-Phosphate) or GDP-L-Galactose was generated using the epimerase. In the latter case, 0.21 mg of epimerase was incubated with GDP-D-Mannose in 20 mM Tris Cl pH 8 in a total volume of 400 μL (see Wolucka et al., 2001) for 30 minutes at 20 C and then used directly in the assay at a 1 to 20 dilution. Assays were either terminated after 10 minutes by heating to 100 C for three minutes, or directly coupled to the phosphatase and L-Galactose dehydrogenase to measure product formation during the assay. Heat terminated assays were cooled on ice, centrifuged to remove precipitated protein and L-Galactose assayed using the coupling enzymes described above (see also (Laing et al., 2004)). Assays for L-Galactose were linear with added L-Galactose-1-Phosphate over the range measured. Backgrounds were run using the empty vector control, which gave the same result as a boiled enzyme control.
As an alternative assay, LCMS was used to identify the forward reaction described above as well measure as the reverse pyrophosphorylase reaction where GTP (1 mM) and L-Galactose-1-Phosphate were incubated as above and the formation of GDP-L-Galactose followed. GDP-D-Mannose and GDP-L-Galactose were separated by HPLC before MS. LC-MS employed an LTQ linear ion trap mass spectrometer fitted with an ESI interface (ThermoQuest, Finnigan, San Jose, Calif., USA) coupled to an EttanTM MDLC (GE Healthcare Bio-Sciences). Separation of GDP-D-Mannose and GDP-L-Galactose was achieved using a Hypercarb column (Thermo Electron, USA), 100×2.1 mm maintained at 40 C. Solvents were (A) 50 mM ammonium acetate and (B) acetonitrile and the flow rate was 200 uL/min. The initial mobile phase, 5% B was held for 3 min, then ramped linearly to 20% B at 11 min, held for 5 min, then ramped linearly to 70% B at 19 min and held for 5 min before resetting to the original conditions. Retention times for GDP-D-Mannose and GDP-L-Galactose were 16.8 min and 17.5 min, respectively.
MS data was acquired in the negative mode using both a selective reaction monitoring (SRM) method SRM m/z 604>m/z 344, 362, 424, 442 and a selected ion monitoring (SIM) method SIM m/z 604. This SIM method monitors only the (M-H)— ion for GDP-D-Mannose and GDP-L-Galactose while the SRM method monitors the distinctive daughter ions formed by fragmenting the precursor ion (M-H)— for both compounds. Both methods maximise sensitivity by screening out any chemical noise from other compounds present. The ESI voltage, capillary temperature, sheath gas pressure, sweep gas and auxiliary gas were set at −10 V, 350° C., 25 psi, 3 psi, and 3 psi, respectively. Separation of D-Mannose-1-Phosphate and L-Galactose-1-Phosphate was achieved isocratically using a Hypercarb column (Thermo Electron, USA), 100×2.1 mm maintained at 40° C. Solvents were (A) 20 mM ammonium acetate and (B) methanol and the flow rate was 200 uL/min. Using a mobile phase of 2% B the retention times for D-Mannose-1-Phosphate and L-Galactose-1-Phosphate were 4.3 min and 4.9 min, respectively. MS data was acquired in the negative mode using both a selective reaction monitoring (SRM) method SRM m/z 259>m/z 79, 97 and a selected ion monitoring (SIM) method SIM m/z 259. […]

[3] = molecular target: T1, kiwifruit GDP-L-Galactose Guanyltransferase EST 319998; assay: Fixed time transferase assay, aliquots measured using coupling enzymes; format: biochemical; details: acceptor Mannose-1-P; 0.057 ug protein
Method: as §1, with “Heat terminated assays were cooled on ice, centrifuged to remove precipitated protein and L-Galactose assayed using the coupling enzymes described above (see also (Laing et al., 2004)).” left out, “Backgrounds were run using the empty vector control, which gave the same result as a boiled enzyme control.” left out
(§2) The applicants used two assays to characterise the enzyme, using two sources of the substrate GDP-L-Galactose. […] The applicants either measured the product formed by adding the coupling enzymes in the assay and measuring the time course of NADH formed, or by stopping the reaction after 10 minutes by boiling for 3 minutes and centrifuging. […]

[4] = Transferase activity of E. coli expressed enzymes (coupled reaction and LCMS); format: biochemical; details: enzyme expressed in E. coli, His tag purified
Method: Expression of genes in E. coli. The EST 319998 from young fruit of Actinidia chinensis and At4g26850 were each cloned into pET30A (Novagene, USA), their sequence checked and expressed in E. coli. The N terminal His6 tag was used to purify the protein. An empty vector control was expressed and purified in parallel. Techniques were essentially as described earlier (Laing et al., 2004). In much of this work the His-protein was further purified on a 5 mL HiTrap Q FF column (GE Healthcare), and identical results were obtained with both preparations.
as §1, with “control. […]” for “control.”
as §2

[5] = test system: Nicotiana tabacum ‘Samsun’; assay: Leaf ascorbate in stably transformed tobacco; format: in vivo; details: two kanamycin resistant lines; FIG. 22
Method: Tobacco was transformed with 319998 and Kanamycin resistant lines selected. These plants were transferred to soil and grown until several leaves were expanded. Ascorbate and gene expression was measured in these leaves (FIG. 22).
Nicotiana tabacum ‘Samsun’ was transformed using Agrobacterium tumefaciens strain GV101 carrying the pHex vector containing EST 319998. Methods used were as described by Guerineau et al (1990), except kanamycin was used instead of sulphonamide selective agents at the rate of 100 mg.L-1.

[6] = substrate: O=P(O)(O)O[C@H]1O[C@H](CO)[C@@H](O)[C@H](O)[C@@H]1O; assay: purified protein, by the assay type; details: other: varying concentrations of the guanyl acceptor; continuous coupled assay; FIG. 3; pH 8.0; 20.0 °C
Method: The assay for GDP-L-Galactose-1-Phosphate Guanyltransferase was run in 20 mM TrisCl, pH 8.0, GDP-L-Galactose, with 1 mM D-Mannose-1-Phosphate. GDP-L-Galactose was either used directly from the Glycoteam product (in which case high backgrounds were observed due to contaminating L-Galactose-1-Phosphate) or GDP-L-Galactose was generated using the epimerase. In the latter case, 0.21 mg of epimerase was incubated with GDP-D-Mannose in 20 mM Tris Cl pH 8 in a total volume of 400 μL (see Wolucka et al., 2001) for 30 minutes at 20 C and then used directly in the assay at a 1 to 20 dilution. Assays were either terminated after 10 minutes by heating to 100 C for three minutes, or directly coupled to the phosphatase and L-Galactose dehydrogenase to measure product formation during the assay. […] Assays for L-Galactose were linear with added L-Galactose-1-Phosphate over the range measured.

[7] = test system: Tobacco (Nicotiana benthamiana) leaves; assay: Leaf ascorbate after transient transformation of tobacco leaves; format: in vivo
From the text: (§3) Tobacco (Nicotiana benthamiana) was transiently transformed with Agrobacterium containing the kiwifruit gene for GDP-L-Galactose Guanyltransferase (EST 319998) cloned in pGreen (Hellens et al., 2000) mixed with Agrobacterium containing the gene for the silencing suppressor P19 as previously described (Hellens et al., 2005). Controls were run using Agrobacterium containing P19 in pGreen alone. Tobacco leaves were harvested 9 days after transformation and frozen in liquid nitrogen.
Ascorbate was extracted as described previously in metaphosphoric acid without reducing agent (Davey et al., 2003; Rassam and Laing, 2005). […]

Arabidopsis plants = assay: Leaf ascorbate in stably transformed Arabidopsis plants; format: in vivo, Arabidopsis thaliana; details: third generation, kanamycin resistant plants; FIGS. 20A-20B
Method: In the second generation, up to 12 plants from each line, selected from the kanamycin plates, were grown to a standard size of a complete rosette of leaves in the glasshouse and ascorbate measured (FIG. 19). […] The increased ascorbate ranged up to over 4 times the normal level of ascorbate in Arabidopsis leaves.
Selected plants from the second generation were taken on to the next generation. […] Again the applicants observed plants with leaf ascorbate over 4 times the control level (FIGS. 20A-20B), but again within a line with high ascorbate progeny, there were always plants with high and low ascorbate in spite of all plants coming from a high ascorbate kanamycin resistant parent. […] Regions of complete sequence identity are found, when the 319998 and Arabidopsis sequence is aligned (data not shown). This could account for the apparent silencing seen.

[8] = test system: Tobacco (Nicotiana benthamiana) leaves; assay: Transferase activity in extracts of transiently transformed tobacco leaves; format: in vivo; details: transient expression in pGreen mixed with P19
Method: The transferase activity in tobacco leaves was measured by extracting liquid nitrogen ground leaves in approximately five volumes of TrisCI pH 8.0, 2 mM DTT and 1 mM EDTA, centrifuging, desalting the supernatant using a NAP desalting column equilibrated with the same buffer and assaying the enzyme using the coupled assay described above. Protein in the extracts was measured using the Biorad Bradford Coumassie assay (Bradford, 1976) using BSA as a standard.
as §3

**Q.** For `Nc1nc2c(ncn2[C@@H]2O[C@H](COP(=O)(O)OP(=O)(O)OC3O[C@@H](CO)[C@@H](O)[C@@H](O)[C@@H]3O)[C@@H](O)[C@H]2O)c(=O)[nH]1` (stereo partly drawn) [GDP-L-Galactose], which acid stability [1] is on record?
**A.** The acid stability was “extremely acid labile”.

**Q.** And the “transferase activity, LCMS” value [2]?
**A.** Its value is “high BG”.

**Q.** What about the “transferase activity, Coupled assay” value [3] of the same molecule?
**A.** Its value is 0.017 nmoles/sec/ug protein.

B1: kiwifruit GDP-L-Galactose Guanyltransferase EST 319998 (Actinidia chinensis var. chinensis) (protein)
chain: MLKIKRVPTVVSNFQKDEAEDGARSGGGCGRNCLQKCCIQGAKLPLYAFKRVKEVVGEKGLLAVDDEEAPVAFLDSLLLGEWEDRVQRGLFRYDVTACETKVIPGEYGFIAQLNEGRHLKKRPTEFRVDKVLQPFDESKFNFTKVGQEEVLFQFEASDDNEVQFFPNAPVDVENSPSVVAINVSPIEYGHVLLIPRILECLPQRIDRESFLLALHMAAEAGNPYFRLGYNSLGAFATINHLHFQAYYLAVPFPIEKAPTRKITTLNGGVKISDLLNYPVRGLVFEGGNSLEDLSNAVSDSSICLQGNNIPYNVLISDSGKCIFLLPQCYAEKQALGEVSSDLLDTQVNPAVWEISGHMVLKRKEDYEEASEGNAWRLLAEVSLSEERFEEVKALIFEAISCADDRSGSTAENLLEEPDDNPQSRKVANDALNKGSHRGMVPGKQECLVQH
**Q.** For B1, which “GDP-L-Galactose Guanyltransferase activity of the expressed enzyme” value [4] is on record?
**A.** The value was “could catalyse the conversion of GDP-L-Galactose to L-Galactose-1-P”.

**Q.** And the “increase in leaf ascorbate” value [5]?
**A.** The value was 60%.

**Q.** And the Km [6]?
**A.** Its Km is 110 ± 30 µM.

**Q.** And the “effect on leaf ascorbate” value ([7]; His tag in front of the transferase sequence in pGreen, FIGS. 17A-17B)?
**A.** The value was “active in increasing leaf ascorbate”.

**Q.** And the “function of construct in raising leaf ascorbate” value ([7]; transferase cloned into pGreenII 0229 62-SK (bialaphos resistance), FIGS. 17A-17B)?
**A.** Its value is “fully functional”.

**Q.** And the “effect on leaf ascorbate” value ([7]; transient expression with P19)?
**A.** Its value is “usually was the most effective gene”.

**Q.** What about the “increase in leaf ascorbate compared to control leaves” value ([7]; transient expression with P19, listed as 319998) of the same molecule?
**A.** The value was “three fold increase in ascorbate”.

**Q.** What about the “effect on leaf ascorbate” value ([7]; transient expression with P19, listed as 319998_Ac) of the same molecule?
**A.** The value was “increased ascorbate levels in the leaf”.

**Q.** And the “increase in leaf ascorbate compared to control leaves” value ([7]; transient expression with P19, listed as transferase)?
**A.** The value was roughly 3 fold.

**Q.** And the “Leaf ascorbate levels, average” value ([7]; transient expression with P19, mean of three plants, three leaves per plant, harvested 9 days after transformation)?
**A.** The value was 102.0.

**Q.** What about the “Relative amount of ascorbate” value ([7]; transient expression with P19, relative to controls) of the same molecule?
**A.** The value was 3.0.

**Q.** And the “leaf ascorbate relative to the control level” value (Arabidopsis plants)?
**A.** The value was “over 4 times”.

**Q.** What about the “GDP-L-Galactose Guanyltransferase activity in leaf extract” value [8] of the same molecule?
**A.** Its value is “measurable activity could be measured in the extract of the leaves”.

From patent US9157088B2, “Transferases, epimerases, polynucleotides encoding these and uses thereof” (priority 2007, dated 2015)
